We go through twelve molecules from patent publication US20250313631A1 (HUMMINGBIRD BIOSCIENCE PTE, published 2025).

Assay [1] has as its target T1, human VISTA expressed on cells (human, UniProt Q9H7M9 33-311).
T1 construct: also called HEK293 VISTA O/E; HEK293T or HEK293-6E cells overexpressing human VISTA
The assay is described as follows: flow cytometry, FITC anti-Fc detection; HEK293 VISTA O/E against HEK293. A general note: In flow cytometry, cells or beads pass a laser one at a time.
Method: (§1) The cells were washed thrice with FACS buffer (PBS with 5 mM EDTA and 0.5% BSA) and resuspended in FITC-conjugated anti-FC antibody (Invitrogen, USA) for 40 min at 2-8° C. Cells were washed again and resuspended in 200 μL of FACS flow buffer (PBS with 5 mM EDTA) for flow cytometric analysis using MACSQuant 10 (Miltenyi Biotec, Germany). After acquisition, all raw data were analyzed using Flowlogic software. Cells were gated using forward and side scatter profile and Median of Fluorescence Intensity (MFI) value was determined for native and overexpressing cell populations.

For assay [2], the target named is T2, recombinant human VISTA (His-tagged) (human, UniProt Q9H7M9 33-194).
T2 construct: bought soluble protein (Sino Biological); also called hVISTA; human VISTA polypeptide
The assay is described as follows: ELISA, target protein coated, absorbance 450 nm. For orientation: In an ELISA, binding on a coated surface is turned into a signal by an enzyme label.

For assay [3], the target named is T3, human PD-L1 (human, UniProt Q9NZQ7 19-239).
T3 construct: captured through a His tag in the BLI experiments; also called hPD-L1; B7H1/PDL-1
T3 sequence (Q9NZQ7 19-239 limits assumed): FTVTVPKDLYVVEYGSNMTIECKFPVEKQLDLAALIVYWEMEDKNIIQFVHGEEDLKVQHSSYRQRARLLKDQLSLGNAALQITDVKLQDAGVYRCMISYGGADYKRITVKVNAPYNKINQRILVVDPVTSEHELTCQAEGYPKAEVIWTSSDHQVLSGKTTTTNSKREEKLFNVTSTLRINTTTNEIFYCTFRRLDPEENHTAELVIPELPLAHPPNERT
The assay is described as follows: ELISA, target protein coated, absorbance 450 nm.

Assay [4] concerns the target T4, recombinant mouse VISTA (His-tagged) (mouse, UniProt Q9D659 33-191).
T4 construct: also called murine VISTA; mVISTA
T4 sequence (looked up): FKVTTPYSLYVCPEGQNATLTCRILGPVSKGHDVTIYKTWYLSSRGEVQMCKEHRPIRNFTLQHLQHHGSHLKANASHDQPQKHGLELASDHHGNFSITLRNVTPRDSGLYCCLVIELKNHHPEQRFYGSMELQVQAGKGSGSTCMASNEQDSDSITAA
The assay is described as follows: ELISA, target protein coated, absorbance 450 nm.

Assay [5] has as its target T2, recombinant human VISTA (His-tagged). As to the kind of experiment: ELISA, target protein coated, absorbance 450 nm. The source holds these as a separate data set.
Assay [6] deals with T4, recombinant mouse VISTA (His-tagged). The assay is described as follows: ELISA, target protein coated, absorbance 450 nm. This is another data set of the same source.
The target of assay [7] is T2, recombinant human VISTA (His-tagged). As to the kind of experiment: BLI (Octet), 1:1 global fit, human VISTA captured. A general note: In BLI a coated tip is dipped into the sample, and binding shifts an interference pattern.
Method: (§2) Finally, the biosensors were incubated for 120 sec in PBS pH 7.2 to obtain the dissociation curves. Kinetic and affinity constants were calculated by global fitting of the association and dissociation data to a 1:1 binding model.
Assay [8] has the same target. As to the kind of experiment: ELISA, plate coated with human VISTA; unit nM from the legend paragraph 697.
Assay [9] concerns the target T4, recombinant mouse VISTA (His-tagged). The assay is described as follows: BLI (Octet), 1:1 global fit, mouse VISTA captured.
Method: All measurements were performed at 25° C. with agitation at 1000 rpm. […] Sensograms were referenced for buffer effects and then fitted using the Octet QK384 user software (Pall ForteBio, USA).
Assay [10] concerns the target T3, human PD-L1. As to the kind of experiment: BLI (Octet), His-tagged human PD-L1 on anti-Penta-HIS biosensor, antibody 500-15.6 nM.
Method: as §2
The target of assay [11] is T4, recombinant mouse VISTA (His-tagged). As to the kind of experiment: BLI (Octet), 1:1 global fit, His-tagged mouse VISTA captured.
Assay [12] has the same target. As to the kind of experiment: ELISA, plate coated with mouse VISTA; unit nM from the legend paragraph 697.
Assay [13] deals with T2, recombinant human VISTA (His-tagged). As to the kind of experiment: BLI (Octet), 1:1 global fit, His-tagged human VISTA captured.
Assay [14] has as its target T4, recombinant mouse VISTA (His-tagged). The assay is described as follows: ELISA, plate coated with mouse VISTA; unit nM from the legend paragraph 699.
Assay [15] has as its target T2, recombinant human VISTA (His-tagged). The assay is described as follows: ELISA, plate coated with human VISTA; unit nM from the legend paragraph 699.
For assay [16], the target named is T4, recombinant mouse VISTA (His-tagged). The assay is described as follows: ELISA, plate coated with mouse VISTA; unit nM from the legend paragraph 698.
Assay [17] addresses T2, recombinant human VISTA (His-tagged). The assay is described as follows: ELISA, plate coated with human VISTA; unit nM from the legend paragraph 698.
Assay [18] has as its target T4, recombinant mouse VISTA (His-tagged). The assay is described as follows: BLI (Octet), 1:1 global fit, His-tagged mouse VISTA captured. This is another data set of the same source.
The target of assay [19] is T2, recombinant human VISTA (His-tagged). As to the kind of experiment: competition ELISA: VSIG-3 coated, His-tagged VISTA added with the antibody, anti-His-HRP; blocked ligand VSIG-3.
Method: Briefly, 96-well plates (Nunc, Denmark) were coated with 1 μg/ml of untagged or Fc-tagged VSIG-3 (R&D Systems, USA) in 1×PBS for 16 h at 4° C. […] Plates were subsequently washed three times with TBS-T and incubated with an HRP-conjugated anti-his secondary antibody for 1 h at room temperature. After washing, plates were developed with colorimetric detection substrate Turbo-TMB (Pierce, USA).
The target of assay [20] is T1, human VISTA expressed on cells. The assay is described as follows: flow cytometry, FITC anti-Fc detection; HEK293 cells overexpressing human VISTA against HEK293 cells without VISTA.
Method: as §1

Numbering of substitutions follows the chain as printed. Read-outs that look alike come from different tables or passages of the source. Where only a bound is given, the exact number is not on record here.

B1: anti-VISTA clone 1M2-D2 IgG1 (antibody, V domains shown)
VH: EVKVEESGGGLVQPGGSMKLSCAASGFTFSDAWMDWVHQSPEKGLEWVAEIRSKANNHATYYVESVEGRFTISRDDSKSSVFLQVNSLRPEDTGIYYCTRRDGYYFAYWGQGTLVTVSA
VL: DIVLTQSPAIMSASLGEEITLTCSASSSVRDMHWYQQKSGTSPKVLIYNTFNLASGVPSRFSGSGSGTFYSLTISSVEAGDAAAYYCHQWSSYPTFGGGTKLEIKR
Take B1: the binding result in assay [1] is recorded as “binds”.

B2: anti-VISTA clone 13D5-1 IgG1 (antibody, V domains shown)
VH: QVQLQQSGAELVRPGTSVKISCKASGYTFTNYWLGWVKQRPGHGLEWIGDIYPGGGYTNYNEKFKGKATLTADTSSSTAYMQLSSLTSEDSAVYFCVRSGYYYGSSWYFDVWGAGTTVTVSS
VL: DVLMTQTPLSLPVSLGDQASISCRSSQSIVHSSGNTYLEWYLQKPDQSPKLLIYKVSNRFSGVPDRFSGSGSGTDFTLKISRVEAEDLGVYYCFQGSHVPPTFGGGTKLEIKR
With B2, the binding result (in assay [2]; in the assay with human PD-L1 [3]; in [4]) was “binds” in each case.

B3: anti-VISTA clone 13D5-13 IgG1 (antibody, V domains shown)
VH: B2 VH with T74I, V93D, S99G
VL: B2 VL with I29T, S33I, D46G, G71E
Regarding B3, the binding result in [5] and in assay [6] was “binds” throughout.

B4: anti-VISTA clone V4-C1 IgG1 (antibody, V domains shown)
VH: QVQLQESGPGLVKPSDTLSLTCTVSGYSITSDYAWNWIRQTPGKGLEWIGYITYSGYISYNPSLRSRVTISRDTSKNQFSLKLSSVTAADTAVYSCARALYYPWYFDVWGTGTTVTVSS
VL: EIVITQSPATLSLSPGERATLSCRASSSVGYIHWYQQKPGQAPRPLIYATSNRATGIPARFSGSGSGTDNTLTISSLEPEDSAVYYCQQWSSYPPITFGGGTKLEVKR
The Kd is the equilibrium constant for the complex coming apart. For orientation: koff means the first-order rate constant of dissociation. A word on the kon: it is the second-order rate constant of association. A word on the EC50: it is the concentration at which the effect is half-maximal. As to B4, the Kd in assay [7] is less than 0.001 nM; in [9], 58.5 nM; in assay [11], 66.7 nM; in assay [13] it was less than 1 pM; in assay [18], 60.7 nM. The off-rate constant (koff) in [7] was less than 1e-07 s⁻¹; in assay [9], 0.0162 s⁻¹; in [11], 0.022 s⁻¹; in [13], less than 1e-07 s⁻¹; in assay [18], 0.0147 s⁻¹. The on-rate (kon) in assay [7] stood at 391000 M⁻¹ s⁻¹; in [9], 277000 M⁻¹ s⁻¹; in [11], 330000 M⁻¹ s⁻¹; in assay [13], 343000 M⁻¹ s⁻¹; in [18] it was 243000 M⁻¹ s⁻¹. Besides, the EC50 in [8] was 0.0024 nM; in assay [12], 3.1 nM; in [14], 2.44 nM; in assay [15], 0.065 nM; in assay [16] it was 1.6 nM; in [17], 0.042 nM. The binding result in the assay with human PD-L1 [10] is listed as “no binding (tested: 500 nM)”.

B5: anti-VISTA clone V4-C9 IgG1 (antibody, V domains shown)
VH: B4 VH with I58V
VL: B4 VL with I4L
With B5, the Kd in [7] was 0.125 nM; in [9], 2.88 nM; in assay [11], 4.26 nM; in assay [13] it was less than 1 pM; in assay [18] it was 3.81 nM. The koff in assay [7] was 5.6e-05 s⁻¹; in assay [9] it was 0.00104 s⁻¹; in [11] it was 0.00067 s⁻¹; in [13], less than 1e-07 s⁻¹; in assay [18], 0.00118 s⁻¹. The kon in [7] is 450000 M⁻¹ s⁻¹; in [9], 361000 M⁻¹ s⁻¹; in [11] it was 157000 M⁻¹ s⁻¹; in assay [13], 333000 M⁻¹ s⁻¹; in assay [18] it was 311000 M⁻¹ s⁻¹. Further, the EC50 in assay [8] was 0.031 nM; in [12], 0.11 nM; in [14], 0.18 nM; in assay [15], 0.107 nM; in [16] it was 0.044 nM; in assay [17], 0.03 nM. Also, the binding result with human PD-L1 [10] is listed as “no binding (tested: 500 nM)”.

B6: anti-VISTA clone 4M2-D9 IgG1 (antibody, V domains shown)
VH: EVQLQESGPGLVKPSQSLSLTCTVTGYSITSDYAWNWIRQFPGNRLEWMGFISYSGFTTYSPSLESRISITRDTSKNQFFLQLISVTTEDTATYYCARNHYGGSYWYFDVWGAGTSVTVSS
VL: DIVMTQSPGSLAVSLGQRATISCRASESVEYYGTSLMQWYLQKPGQPPKLLIYAASNVESGVPDRFRGSGSGTDFSLNIHPVEEDDIAMYFCQQSRKVPWTFGGGTKLEIKR
B6: the binding result in assay [1] is on record as “binds”.

B7: anti-VISTA clone 2M1-B12 IgG1 (antibody)
heavy: not shown
light: DIQMMQSPASLSASVGETVAITCGASENIYGALNWYQRKQGKSPQLLIYGATNLADGMSSRFSGSGSGRQYSLKISSLHPDDVATYYCQNVLSTPYTFGGGTKLEIKRTVAAPSVFIFPPSDEQLKSGTASVVCLLNNFYPREAKVQWKVDNALQSGNSQESVTEQDSKDSTYSLSSTLTLSKADYEKHKVYACEVTHQGLSSPVTKSFNRGEC
As for B7, in [1], the binding result is “binds”.

B8: anti-VISTA clone 2M1-D2 IgG1 (antibody)
heavy: not shown
light: B7 light with Q3V, M5T
In the case of B8, the binding result in assay [1] was “binds”.

B9: anti-VISTA clone 5M1-A11 IgG1 (antibody, V domains shown)
VH: QVTLKVSGPGILQPSQTLSLTCSFSGFSLSTSGMGVSWIRQPSGKGLEWLAHIYWDDDKRYNPSLKSRLTISKDSSSNQVFLKITSVDTADTATYYCARRLDGYNDPYYFDYWGQGTTLTVSS
VL: DVVMTQTPALMSASPGEKVTMTCSASSSVSYMYWYQQKPRSSPKPWIYLTSNLASGVPARFSGSGSGTSYSLTISSMEAEDAATYYCQQWNSNPYTFGGGTKLEIKR
In the case of B9, the binding result in assay [1] and in assay [19] was “binds” in each case.

B10: anti-VISTA clone 4M2-C9 IgG1 (antibody, V domains shown)
VH: B9 VH with V6E, S7C
VL: DIVMTQSPSSLSASLGDTVTITCHASQNVNVWLSWYQQKPGNIPKLLIYKASNLHAGVPSRFSGSGSGTGFTLTISSLQPEDIATYYCQQGQSYPLTFGGGTKLEIKR
As for B10, in assay [1], the binding result is given as “binds”.

B11: anti-VISTA clone 4M2-D5 IgG1 (antibody, V domains shown)
VH: QVQLQQSGAELARPGASVRMSCKASGYTFTSYTMNWVKQRPGQGLEWIGFINPDSDYTTYDQKFKDKATLTADSSSSTAYMQLSSLTYDDSAVYYCTRHSYGNYGDYWGQGTTLTVSS
VL: DIVLTQSPKFLLVSAGDRVTITCKASQSVTNDVAWYQQKPGQSPKLLIYYASSRYTGVPDRFTGSGFGTDFTFTINTVQAEDLAVYFCQQDYSSPYTFGGGTKLEIKR
As for B11, in assay [20], the binding result is on record as “binds”.

B12: anti-VISTA clone 4M2-A8 IgG1 (antibody, V domains shown)
VH: QVQLQQSGADLARPGASVKMSCKASGYTFIDYTVHWVKQRPGQGLEWIGFINPSNDYTSYNQKFKDKASLTADTSSTTAYMQLSSLTSDDSAVYYCARHSYGNYGDYWGQGTTLTVSS
VL: B11 VL with L4M, S7A, D32G, S53N, N76S
Regarding B12, the binding result in assay [1] is “binds”.
